These results are taken from IntAct's records for PubMed 30245403.

The assay has as its target T1, prdx2_human PRDX2 (UniProt P32119).
T1 sequence: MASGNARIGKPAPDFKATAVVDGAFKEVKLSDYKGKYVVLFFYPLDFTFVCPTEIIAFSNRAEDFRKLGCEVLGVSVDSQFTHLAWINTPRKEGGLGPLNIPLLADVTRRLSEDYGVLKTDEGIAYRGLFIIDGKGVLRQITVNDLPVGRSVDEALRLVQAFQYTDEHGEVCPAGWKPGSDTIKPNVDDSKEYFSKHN

As for “"DNA (cytosine-5)-methyltransferase 3A" (Homo sapiens) (from UniProt Q9Y6K1) R882H”, the “effect of a mutation on the interaction” value was “increasing interaction strength”.

“"DNA (cytosine-5)-methyltransferase 3A" (Homo sapiens) (from UniProt Q9Y6K1) R882C”: the “effect of a mutation on the interaction” value is listed as “with no effect”.
